Values of other authors as cited in PMC13615496.

Molecular target: PYL (Arabidopsis thaliana) (UniProt Q8VZS8)
Chain of UniProt Q8VZS8 (Q8VZS8 2-221): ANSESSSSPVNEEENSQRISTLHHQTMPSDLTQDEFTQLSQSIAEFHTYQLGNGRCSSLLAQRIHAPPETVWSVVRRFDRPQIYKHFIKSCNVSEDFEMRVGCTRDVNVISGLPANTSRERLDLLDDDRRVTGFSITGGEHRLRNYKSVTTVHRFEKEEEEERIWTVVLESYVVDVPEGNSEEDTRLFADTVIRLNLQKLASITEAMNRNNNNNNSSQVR

- Kd: 52 µM
Substance: ABI (from UniProt P49597)
